Data set [1] has as its system PlexA1. Kind of data set: morpholino-based PlexA1 knockdown in zebrafish, intersegmental vessels. Type of data set: in vivo. The note with it: tg(kdrl:eGFP) zebrafish, 28 hours post fertilization, vs no injection or mismatch morpholino. The source says: We observed PlexA1 positive blood vessels in the tissue array of GBM samples (Figure 5A). […] To address this possibility we first used a transgenic zebra-fish model tg(kdrl:eGFP) highlighting the endothelial cells. This allowed us to assess the angiogenic activities in vivo by analyzing formation of intersegmental vessels (ISVs) after morpholino-based knockdown of the target. […] (Scale bar: 40 μm). […] Representative images of control, Plexin-A1 mismatch and […]1 knockdown embryos (plxna1MO) are shown 28 hours post fertilization (28hpf). […] (E) Live-monitoring of VEGF-induced HUVEC cell migration assay using the […] system (transwell assay). (F) Microphotographs illustrating the expression of PlexA1 in blood vessels of the chick chorioallontoic membrane (upper left picture). Microphotographs (middle and lower left pictures) and camera lucida drawing (middle and lower right pictures) showing representative fields of observation after 24 h incubation with VEGF (100 ng/ml, +vehicle) or […]1 (10^-7 M). The number of VEGF-induced new blood vessels is shown in the graph. For knockdown of PlexA1 in the zebra fish we used morpholino oligonucleotides described by. MO ([NT]) was injected at the one-cell stage. Animals ([…] incubated at 28.5°C for 5 hours before treatment with 1-phenyl-2-thiourea (PTU) to prevent pigment formation. […]

For data set [2], the target named is Plexin-A1 (human (endogenous in U373MG and U118MG)) (UniProt Q9UIW2). Briefly: proximity ligation; proximity ligation assay on tumor tissue sections of U118MG-Luc xenografts; mice treated with MTP-PlexA1 against control mice.
Data set [3] shares this target. Briefly: proximity ligation; in situ proximity ligation assay (Duo-link) on U373MG cells; MTP-PlexA1 (10^-7 M) added, NRP1/PlexA1 complexes counted against vehicle.
Data set [4] has the same target. Briefly: co-IP; immunoprecipitation of PlexA1 from U373MG cells stimulated with Sema3A (100 ng/ml) or VEGF (100 ng/ml) with MTP-PlexA1 (10^-7 M); amount of co-precipitated NRP1 and PlexA4 against no peptide.
The test system of data set [5] is NRP1/PlexA1 complexes. Kind of data set: in situ proximity ligation assay (Duo-link), NRP1/PlexA1 complexes in U373MG cells. Type of data set: cell-based, human. To be noted: specificity control, MTP-Neu at 10–6 M. The protocol: “Zip sequence” is the positive control of dimerization and “Empty” is the negative control of this bacterial system. (C, D) SPR assay (Biacore) to quantify MTP-PlexA1 interactions with PLexA1, NRP1 and VEGFR2 TMDs. (E) Proximity ligation assay showing that MTP-PlexA1 (10^−7 M) decreases the number of PLexA1-NRP1 interactions (green dots) in U373MG cells (scale bar = 20 μm).
Additional specificity controls were performed using a mutated version of MTP-PlexA1 (in which 3 glycines of the GxxxGxxxG motif were replaced by 3 valines or MTP-Neu, an anti-breast cancer peptide known to not interact with PlexA1) as described in Supplementary Figure S2. […] Similar results were obtained when cells were exposed to VEGF (39.4% NRP1 and 35.4% PlexA4, Figure 4B).
Supplementary Figure S2: Specificity controls were performed using a mutated version of MTP-PlexA1 […]
LVIVAVLIAYKRK). Such mutations have been previously shown to be sufficient to lose activity of NRP1 antagonist membrane domain targeting peptide (Roth et al., 2008 Mol Biol Cell). We also used MTP-Neu, a transmembrane domain targeting peptide known to […]
M, a concentration previously shown to produce maximal antagonist activity of the peptide. Additionally, we also repeated the in vitro angiogenic assay on matrigel using HUVEC cells. […]
to MTP-PlexA1. These experiments confirmed the specificity of MTP-PlexA1.
(1 picture or pasted object on this page, not shown here)

Data set [6] relates to NRP1 or PlexA1. To be noted: ref Arpel et al., 2014, Cell Reports; cited from earlier work. The source says:
Such mutations have been previously shown to be sufficient to lose activity of NRP1 antagonist membrane domain targeting peptide (Roth et al., 2008 Mol Biol Cell).

The text below walks through data of paper PMC5295395, “Inhibition of PlexA1-mediated brain tumor growth and tumor-associated angiogenesis using a transmembrane domain targeting peptide” (Oncotarget, 2016).

Sequence of UniProt Q9UIW2 (Q9UIW2 27-1896): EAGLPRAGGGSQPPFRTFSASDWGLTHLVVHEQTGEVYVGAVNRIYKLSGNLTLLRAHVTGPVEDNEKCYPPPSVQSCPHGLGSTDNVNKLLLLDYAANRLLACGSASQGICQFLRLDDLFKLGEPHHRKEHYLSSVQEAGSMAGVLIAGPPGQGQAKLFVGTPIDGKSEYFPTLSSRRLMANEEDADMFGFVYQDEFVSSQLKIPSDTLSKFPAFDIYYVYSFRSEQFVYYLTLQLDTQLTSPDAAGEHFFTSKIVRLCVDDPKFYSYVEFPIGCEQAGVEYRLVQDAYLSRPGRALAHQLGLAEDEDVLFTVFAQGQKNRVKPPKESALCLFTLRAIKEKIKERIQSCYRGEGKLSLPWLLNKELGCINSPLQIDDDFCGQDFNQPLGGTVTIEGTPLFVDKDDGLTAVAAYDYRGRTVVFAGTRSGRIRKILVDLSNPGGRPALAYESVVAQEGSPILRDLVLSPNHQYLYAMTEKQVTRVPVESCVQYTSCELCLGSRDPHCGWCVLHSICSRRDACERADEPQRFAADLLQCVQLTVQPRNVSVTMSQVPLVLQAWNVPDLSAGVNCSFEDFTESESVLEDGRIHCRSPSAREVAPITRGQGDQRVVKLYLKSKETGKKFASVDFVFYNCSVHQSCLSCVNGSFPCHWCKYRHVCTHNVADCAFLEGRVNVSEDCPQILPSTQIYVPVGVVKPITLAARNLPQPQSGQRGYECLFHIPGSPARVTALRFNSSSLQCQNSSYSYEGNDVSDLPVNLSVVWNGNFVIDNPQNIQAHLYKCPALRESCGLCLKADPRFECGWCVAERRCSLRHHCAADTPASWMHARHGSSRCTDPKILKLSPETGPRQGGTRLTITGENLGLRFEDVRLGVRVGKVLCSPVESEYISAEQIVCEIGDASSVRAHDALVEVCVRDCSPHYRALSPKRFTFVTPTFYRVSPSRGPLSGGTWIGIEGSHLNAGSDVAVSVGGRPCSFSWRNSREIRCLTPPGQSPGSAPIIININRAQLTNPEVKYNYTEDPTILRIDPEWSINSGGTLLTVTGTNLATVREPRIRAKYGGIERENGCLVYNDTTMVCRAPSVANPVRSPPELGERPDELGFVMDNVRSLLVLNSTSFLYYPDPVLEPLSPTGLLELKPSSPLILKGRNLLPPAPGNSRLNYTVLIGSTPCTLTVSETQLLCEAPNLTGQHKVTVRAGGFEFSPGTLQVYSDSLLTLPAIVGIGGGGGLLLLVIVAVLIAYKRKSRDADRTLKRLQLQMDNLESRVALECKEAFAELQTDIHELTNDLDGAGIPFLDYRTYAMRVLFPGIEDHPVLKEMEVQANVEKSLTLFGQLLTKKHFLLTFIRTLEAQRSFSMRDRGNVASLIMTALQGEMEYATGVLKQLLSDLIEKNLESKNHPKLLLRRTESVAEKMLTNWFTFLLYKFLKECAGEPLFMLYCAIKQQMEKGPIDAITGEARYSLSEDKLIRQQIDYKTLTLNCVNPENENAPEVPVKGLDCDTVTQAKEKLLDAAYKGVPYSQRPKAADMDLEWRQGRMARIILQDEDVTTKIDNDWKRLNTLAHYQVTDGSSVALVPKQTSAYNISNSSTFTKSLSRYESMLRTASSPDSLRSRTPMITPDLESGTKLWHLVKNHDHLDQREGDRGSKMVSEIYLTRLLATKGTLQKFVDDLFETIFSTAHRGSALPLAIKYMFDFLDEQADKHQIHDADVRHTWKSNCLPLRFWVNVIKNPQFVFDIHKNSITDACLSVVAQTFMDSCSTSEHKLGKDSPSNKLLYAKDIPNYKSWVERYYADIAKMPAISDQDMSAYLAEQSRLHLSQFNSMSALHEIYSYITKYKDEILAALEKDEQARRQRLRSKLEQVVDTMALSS

As to “5′-GCCACATATCTGCACTGGTCCTTGA-3′ (all phosphorodiamidate morpholino (PMO)) [morpholino sequence against PlexA1, morpholino oligonucleotide for knockdown of PlexA1 in the zebra fish]”, the “abnormal angiogenic sprouts in intersegmental vessels” value in data set [1] is on record as “significant number of abnormal angiogenic sprouts”.

“MTP-PlexA1, synthetic transmembrane peptide mimicking the TMD of PlexA1”: the percent change of PlexA1-NRP1 interactions (proximity ligation, tumor sections) in data set [2] was -48.5%. For the same substance, the percent reduction of NRP1/PlexA1 complexes (proximity ligation, U373MG) in data set [3] stood at 29.4%. For the same substance, in data set [4], the percent reduction of NRP1 co-immunoprecipitated with PlexA1 (VEGF) worked out at 39.4% and the percent reduction of PlexA4 co-immunoprecipitated with PlexA1 (VEGF) stood at 35.4%.

For the substance “TFIIATVEGVLLFLILVVVVGILIKRR [MTP-Neu, reference compound]”, the “disruption of NRP1/PlexA1 dimers” value in data set [5] is “unrelated MTP-Neu peptide”. The “interaction with NRP1 or PlexA1” value in data set [6] was “not interact with NRP1 or PlexA1”.
